The text below walks through data of patent EP4538294A1 (Shandong Simcere Biopharmaceutical Co., Ltd., dated 2025).

Values joined by “and” are separate entries in the source; they are usually repeats but may differ in a detail not shown here. Equal entries are not always repeated.

In assay [1] the target is T1, human BCMA on Flp-inCHO-human BCMA cells (human, UniProt Q02223 1-184).
T1 construct: whole, on cells
T1 sequence (looked up): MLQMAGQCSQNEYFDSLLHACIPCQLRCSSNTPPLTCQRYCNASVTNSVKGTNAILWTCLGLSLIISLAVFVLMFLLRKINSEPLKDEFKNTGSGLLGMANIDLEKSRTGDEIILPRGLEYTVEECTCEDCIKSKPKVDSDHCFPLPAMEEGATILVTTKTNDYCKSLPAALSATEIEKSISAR
Briefly: FACS, Flp-inCHO-human BCMA cells.

Assay [2] concerns the target T2, monkey CD3 on activated monkey PBMC (monkey).
T2 construct: whole, on cells
Kind of assay: FACS, activated monkey PBMC.

Assay [3] has as its target T3, human GPRC5D on CHOK1-human GPRC5D cells (human, UniProt Q9NZD1 1-345).
T3 construct: whole, on cells
Kind of assay: FACS, CHOK1-human GPRC5D cells.

T2 sequence (Q95LI5 22-198): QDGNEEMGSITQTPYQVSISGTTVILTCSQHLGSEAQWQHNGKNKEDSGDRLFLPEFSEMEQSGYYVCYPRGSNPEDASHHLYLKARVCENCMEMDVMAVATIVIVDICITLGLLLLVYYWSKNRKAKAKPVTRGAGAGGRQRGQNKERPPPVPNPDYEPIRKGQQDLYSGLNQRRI
T3 sequence (Q9NZD1 whole entry): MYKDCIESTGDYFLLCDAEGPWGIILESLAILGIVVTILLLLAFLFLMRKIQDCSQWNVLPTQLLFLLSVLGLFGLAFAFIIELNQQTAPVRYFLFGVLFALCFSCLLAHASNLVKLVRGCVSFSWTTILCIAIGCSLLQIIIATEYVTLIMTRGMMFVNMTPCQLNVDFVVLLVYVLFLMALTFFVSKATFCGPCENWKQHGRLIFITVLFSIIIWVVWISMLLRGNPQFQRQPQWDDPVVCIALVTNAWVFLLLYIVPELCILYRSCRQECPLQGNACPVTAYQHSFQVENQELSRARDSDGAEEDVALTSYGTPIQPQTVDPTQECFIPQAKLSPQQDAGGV

B1: antiFITC×CD3-Hab01 (bispecific antibody, human IgG4 S228P, kappa, F234A L235A)
heavy: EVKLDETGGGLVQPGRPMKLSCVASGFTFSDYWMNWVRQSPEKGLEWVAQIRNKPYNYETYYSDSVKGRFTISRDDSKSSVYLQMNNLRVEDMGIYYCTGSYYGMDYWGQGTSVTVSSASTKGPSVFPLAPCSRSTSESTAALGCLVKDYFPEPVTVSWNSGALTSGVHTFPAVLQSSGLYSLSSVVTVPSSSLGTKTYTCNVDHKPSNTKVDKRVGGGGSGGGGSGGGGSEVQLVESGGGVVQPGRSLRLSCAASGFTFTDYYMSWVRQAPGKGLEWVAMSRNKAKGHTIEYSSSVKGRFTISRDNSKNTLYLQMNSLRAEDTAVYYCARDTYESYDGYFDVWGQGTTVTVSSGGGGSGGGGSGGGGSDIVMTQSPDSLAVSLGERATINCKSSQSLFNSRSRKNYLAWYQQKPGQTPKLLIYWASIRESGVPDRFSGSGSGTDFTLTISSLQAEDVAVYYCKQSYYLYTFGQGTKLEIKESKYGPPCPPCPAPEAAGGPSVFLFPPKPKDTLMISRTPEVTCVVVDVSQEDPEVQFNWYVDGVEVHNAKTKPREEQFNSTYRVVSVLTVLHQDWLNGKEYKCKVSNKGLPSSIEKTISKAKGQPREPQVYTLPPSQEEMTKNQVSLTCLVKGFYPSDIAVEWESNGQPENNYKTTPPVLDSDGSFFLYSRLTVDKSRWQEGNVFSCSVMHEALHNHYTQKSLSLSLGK
light: DVVMTQTPLSLPVSLGDQASISCRSSQSLVHSNGNTYLRWYLQKPGQSPKVLIYKVSNRFSGVPDRFSGSGSGTDFTLKISRVEAEDLGVYFCSQSTHVPWTFGGGTKLEIKRTVAAPSVFIFPPSDEQLKSGTASVVCLLNNFYPREAKVQWKVDNALQSGNSQESVTEQDSKDSTYSLSSTLTLSKADYEKHKVYACEVTHQGLSSPVTKSFNRGEC
notes: Negative control for the tumor antigens, prepared internally; carries the CD3-Hab01 arm
Consider B1, for which the binding result in assay [1] and in assay [3] was “no binding (tested: 100 nM highest concentration)” each time. The EC50 in assay [2] was 15.2 nM and 12.4 nM.

B2: Tri-64 (trispecific antibody, V domains shown)
VHH: EVQLVESGGGLVQPGGSLRLSCAASESISSIHIMAWYRQAPGKQRELVAGIRNDGSTVYVDSVKGRFTISRDNAKNSLYLQMNSLRAEDTAVYYCNADQGFGSYSEWERRSRWGQGTTVTVSS
VH 1: EVQLVQSGAEVKKPGSSVKVSCKASGYTFTSYGISWVRQAPGQGLEWMGEIYPRSGNTYYNEKFKGRVTLTADKSTSTAYMELSSLRSEDTAVYYCARGRAYGRNYPMDYWGQGTTVTVSS
VL 1: EIVLTQSPATLSLSPGERATLSCRASQSIGTSIHWYQQKPGQSPRLLIKYASESISGIPARFSGSGSGTDFTLTISSLEPEDFAVYYCQQSNSWPYTFGGGTKVEIK
VH 2: EVQLVESGGGVVQPGRSLRLSCAASGFTFTDYYMSWVRQAPGKGLEWVAMSRNKAKGHTIEYSSSVKGRFTISRDNSKNTLYLQMNSLRAEDTAVYYCARDTYESYDGYFDVWGQGTTVTVSS
VL 2: DIVMTQSPDSLAVSLGERATINCKSSQSLFNSRSRKNYLAWYQQKPGQTPKLLIYWASIRESGVPDRFSGSGSGTDFTLTISSLQAEDVAVYYCKQSYYLYTFGQGTKLEIK
Take B2: the EC50 in assay [1] turned out to be 1.08 nM; in assay [3] it was 3.63 nM. Moreover, the “Maximum mean fluorescence intensity” value in assay [2] was 348.

B3: Tri-38 (trispecific antibody, V domains shown)
VHH: EVQLVESGGGLVQPGGSLRLSCSASGFTLDYYMIGWFRQAPGKEREGLSSISPADGSTYYADSVKGRFTISRDSSKNTVYLQMNSLRAEDTAVYYCAAGNEATISWGFGPWEYDYWGQGTMVTVSS
VH 1: EVQLVQSGAEVKKPGSSVKVSCKASGYTFTSYGISWVRQAPGQGLEWMGEIYPRSGNTYYNEKFKGRVTLTADKSTSTAYMELSSLRSEDTAVYYCARGRAYGRNYPMDYWGQGTTVTVSS
VL 1: EIVLTQSPATLSLSPGERATLSCRASQSIGTSIHWYQQKPGQSPRLLIKYASESISGIPARFSGSGSGTDFTLTISSLEPEDFAVYYCQQSNSWPYTFGGGTKVEIK
VH 2: EVQLVESGGGVVQPGRSLRLSCAASGFTFTDYYMSWVRQAPGKGLEWVAMSRNKAKGHTIEYSSSVKGRFTISRDNSKNTLYLQMNSLRAEDTAVYYCARDTYESYDGYFDVWGQGTTVTVSS
VL 2: DIVMTQSPDSLAVSLGERATINCKSSQSLFNSRSRKNYLAWYQQKPGQTPKLLIYWASIRESGVPDRFSGSGSGTDFTLTISSLQAEDVAVYYCKQSYYLYTFGQGTKLEIK
For B3, the EC50 in assay [1] was 4.43 nM; in assay [3], 2.06 nM. Moreover, in assay [2], the “Maximum mean fluorescence intensity” value is 1440.

B4: Tri-52 (trispecific antibody, V domains shown)
VHH: EVQLVESGGGLVQPGGSLRLSCAASESISSIHIMAWYRQAPGKQRELVAGIRNDGSTVYVDSVKGRFTISRDNAKNSLYLQMNSLRAEDTAVYYCNADQGFGSYSEWERRSRWGQGTTVTVSS
VH 1: EVQLVQSGAEVKKPGSSVKVSCKASGYTFTSYGISWVRQAPGQGLEWMGEIYPRSGNTYYNEKFKGRVTLTADKSTSTAYMELSSLRSEDTAVYYCARGRAYGRNYPMDYWGQGTTVTVSS
VL 1: EIVLTQSPATLSLSPGERATLSCRASQSIGTSIHWYQQKPGQSPRLLIKYASESISGIPARFSGSGSGTDFTLTISSLEPEDFAVYYCQQSNSWPYTFGGGTKVEIK
VH 2: EVQLVESGGGVVQPGRSLRLSCAASGFTFTDYYMSWVRQAPGKGLEWVAMSRNKAKGHTIEYSSSVKGRFTISRDNSKNTLYLQMNSLRAEDTAVYYCARDTYESYDGYFDVWGQGTTVTVSS
VL 2: DIVMTQSPDSLAVSLGERATINCKSSQSLFNSRSRKNYLAWYQQKPGQTPKLLIYWASIRESGVPDRFSGSGSGTDFTLTISSLQAEDVAVYYCKQSYYLYTFGQGTKLEIK
Turning to B4, the EC50 was found to be 1.88 nM in assay [1] and 2.97 nM in assay [3]. The “Maximum mean fluorescence intensity” value in assay [2] was 693.

B5: Tri-46 (trispecific antibody, V domains shown)
VHH: EVQLVESGGGLVQPGGSLRLSCAASESISSIHIMAWYRQAPGKQRELVAGIRNDGSTVYVDSVKGRFTISRDNAKNSLYLQMNSLRAEDTAVYYCNADQGFGSYSEWERRSRWGQGTTVTVSS
VH 1: EVQLVQSGAEVKKPGSSVKVSCKASGYTFTSYGISWVRQAPGQGLEWMGEIYPRSGNTYYNEKFKGRVTLTADKSTSTAYMELSSLRSEDTAVYYCARGRAYGRNYPMDYWGQGTTVTVSS
VL 1: EIVLTQSPATLSLSPGERATLSCRASQSIGTSIHWYQQKPGQSPRLLIKYASESISGIPARFSGSGSGTDFTLTISSLEPEDFAVYYCQQSNSWPYTFGGGTKVEIK
VH 2: EVQLVESGGGVVQPGRSLRLSCAASGFTFTDYYMSWVRQAPGKGLEWVAMSRNKAKGHTIEYSSSVKGRFTISRDNSKNTLYLQMNSLRAEDTAVYYCARDTYESYDGYFDVWGQGTTVTVSS
VL 2: DIVMTQSPDSLAVSLGERATINCKSSQSLFNSRSRKNYLAWYQQKPGQTPKLLIYWASIRESGVPDRFSGSGSGTDFTLTISSLQAEDVAVYYCKQSYYLYTFGQGTKLEIK
With B5, the EC50 came out at 5.19 nM in assay [1] and 2.36 nM in assay [3]. In addition, the “Maximum mean fluorescence intensity” value in assay [2] amounted to 416.

B6: Tri-66 (trispecific antibody, V domains shown)
VHH: EVQLVESGGGLVQPGGSLRLSCAASESISSIHIMAWYRQAPGKQRELVAGIRNDGSTVYVDSVKGRFTISRDNAKNSLYLQMNSLRAEDTAVYYCNADQGFGSYSEWERRSRWGQGTTVTVSS
VH 1: EVQLVQSGAEVKKPGASVKVSCKTSGYIFTNFGITWVRQAPGQRLEWMGENYPRRINTYYNEKFKGRVTITADKSASTAYMELSSLRSEDTAVYYCSRKDIFGLSYALDYWGQGTTVTVSS
VL 1: DIQMTQSPSSLSASVGDRVTITCKASQNVGTNVAWYQHKPGKSPKALIYSASYQYSGVPSRFSGSGSGTDFTLTISSLQPEDVATYICQQYKNYPYTFGGGTKVEIK
VH 2: EVQLVESGGGVVQPGRSLRLSCAASGFTFTDYYMSWVRQAPGKGLEWVAMSRNKAKGHTIEYSSSVKGRFTISRDNSKNTLYLQMNSLRAEDTAVYYCARDTYESYDGYFDVWGQGTTVTVSS
VL 2: DIVMTQSPDSLAVSLGERATINCKSSQSLFNSRSRKNYLAWYQQKPGQTPKLLIYWASIRESGVPDRFSGSGSGTDFTLTISSLQAEDVAVYYCKQSYYLYTFGQGTKLEIK
On to B6, for which the concentration for a half-maximal effect (EC50) came out at 1.09 nM in assay [1] and 1.53 nM in assay [3]. In assay [2], the “Maximum mean fluorescence intensity” value was determined as 345.

B7: Tri-65 (trispecific antibody, V domains shown)
VHH: EVQLVESGGGLVQPGGSLRLSCAASESISSIHIMAWYRQAPGKQRELVAGIRNDGSTVYVDSVKGRFTISRDNAKNSLYLQMNSLRAEDTAVYYCNADQGFGSYSEWERRSRWGQGTTVTVSS
VH 1: EVQLVQSGAEVKKPGASVKVSCKTSGYIFTNFGITWVRQAPGQRLEWMGENYPRRINTYYNEKFKGRVTITADKSASTAYMELSSLRSEDTAVYYCSRKDIFGLSYALDYWGQGTTVTVSS
VL 1: DIQMTQSPSSLSASVGDRVTITCKASQNVGTNVAWYQHKPGKSPKALIYSASYQYSGVPSRFSGSGSGTDFTLTISSLQPEDVATYICQQYKNYPYTFGGGTKVEIK
VH 2: EVQLVESGGGVVQPGRSLRLSCAASGFTFTDYYMSWVRQAPGKGLEWVAMSRNKAKGHTIEYSSSVKGRFTISRDNSKNTLYLQMNSLRAEDTAVYYCARDTYESYDGYFDVWGQGTTVTVSS
VL 2: DIVMTQSPDSLAVSLGERATINCKSSQSLFNSRSRKNYLAWYQQKPGQTPKLLIYWASIRESGVPDRFSGSGSGTDFTLTISSLQAEDVAVYYCKQSYYLYTFGQGTKLEIK
As to B7, the figures for the EC50 in assay [1] and in assay [3] were 2.54 nM and 1.66 nM, respectively. For the same molecule, the “Maximum mean fluorescence intensity” value in assay [2] was 377.
